The values below are quoted from earlier work in patent US20100086958A1, “NOVEL ENZYME” (priority 2008, published 2010).

The conditions of data set [1]: cited from earlier work; for activity with NADP^+ / activity with NAD^+: unit = μmol formate oxidized per min, literature.
The conditions of data set [2]: data from Serov et al. (2002), cited from earlier work; for Km: read-out: Km NAD^+.
For data set [3] the following is noted: literature, PTDH, cited from earlier work; for Km: read-out: Km NAD^+.
For data set [4] the following is noted: literature, PTDH, cited from earlier work; for Km: read-out: Km NADP^+.

Like-named read-outs stand apart in the source and are kept apart here.

B1: C. bodinii D195S/Y196H: D195S/Y196H mutant of C. bodinii FDH (protein, UniProt O13437 1-364, looked up, variant D195S Y196H)
Formate dehydrogenase: MKIVLVLYDAGKHAADEEKLYGCTENKLGIANWLKDQGHELITTSDKEGETSELDKHIPDADIIITTPFHPAYITKERLDKAKNLKLVVVAGVGSDHIDLDYINQTGKKISVLEVTGSNVVSVAEHVVMTMLVLVRNFVPAHEQIINHDWEVAAIAKDAYDIEGKTIATIGAGRIGYRVLERLLPFNPKELLYYSHQALPKEAEEKVGARRVENIEELVAQADIVTVNAPLHAGTKGLINKELLSKFKKGAWLVNTARGAICVAEDVAAALESGQLRGYGGDVWFPQPAPKDHPWRDMRNKYGAGNAMTPHYSGTTLDAQTRYAEGTKNILESFFTGKFDYRPQDIILLNGEYVTKAYGKHDKK
For the molecule B1, in data set [1], the “activity with NADP^+” value is listed as 0.19 U/mg and the “activity with NAD^+” value is on record as 1.3 U/mg.

B2: C. bodinii D195S/Y196H/K356T: D195S/Y196H/K356T mutant of C. bodinii FDH (protein, UniProt O13437 1-364, looked up, variant D195S Y196H K356T)
Formate dehydrogenase: MKIVLVLYDAGKHAADEEKLYGCTENKLGIANWLKDQGHELITTSDKEGETSELDKHIPDADIIITTPFHPAYITKERLDKAKNLKLVVVAGVGSDHIDLDYINQTGKKISVLEVTGSNVVSVAEHVVMTMLVLVRNFVPAHEQIINHDWEVAAIAKDAYDIEGKTIATIGAGRIGYRVLERLLPFNPKELLYYSHQALPKEAEEKVGARRVENIEELVAQADIVTVNAPLHAGTKGLINKELLSKFKKGAWLVNTARGAICVAEDVAAALESGQLRGYGGDVWFPQPAPKDHPWRDMRNKYGAGNAMTPHYSGTTLDAQTRYAEGTKNILESFFTGKFDYRPQDIILLNGEYVTTAYGKHDKK
Regarding B2, in data set [1], the “activity with NADP^+” value was 0.36 U/mg and the “activity with NAD^+” value is 1.3 U/mg.

B3: CboFDH: wild type FDH from Candida Boidinii, Seq ID No: 13 (protein, listed as Candida boidinii)
chain: MKIVLVLYDAGKHAADEEKLYGCTENKLGIANWLKDQGHELITTSDKEGGNSVLDQHIPDADIIITTPFHPAYITKERIDKAKKLKLVVVAGVGSDHIDLDYINQTGKKISVLEVTGSNVVSVAEHVVMTMLVLVRNFVPAHEQIINHDWEVAAIAKDAYDIEGKTIATIGAGRIGYRVLERLVPFNPKELLYYDYQALPKDAEEKVGARRVENIEELVAQADIVTVNAPLHAGTKGLINKELLSKFKKGAWLVNTARGAICVAEDVAAALESGQLRGYGGDVWFPQPAPKDHPWRDMRNKYGAGNAMTPHYSGTTLDAQTRYAQGTKNILESFFTGKFDYRPQDIILLNGEYVTKAYGKHDKK
Turning to B3, in data set [1], the “activity with NADP^+” value is 0.0013 U/mg and the “activity with NAD^+” value is reported as 2.2 U/mg.

B4: C. bodinii D195S: D195S mutant of C. bodinii FDH (protein, UniProt O13437 1-364, looked up, variant D195S)
Formate dehydrogenase: MKIVLVLYDAGKHAADEEKLYGCTENKLGIANWLKDQGHELITTSDKEGETSELDKHIPDADIIITTPFHPAYITKERLDKAKNLKLVVVAGVGSDHIDLDYINQTGKKISVLEVTGSNVVSVAEHVVMTMLVLVRNFVPAHEQIINHDWEVAAIAKDAYDIEGKTIATIGAGRIGYRVLERLLPFNPKELLYYSYQALPKEAEEKVGARRVENIEELVAQADIVTVNAPLHAGTKGLINKELLSKFKKGAWLVNTARGAICVAEDVAAALESGQLRGYGGDVWFPQPAPKDHPWRDMRNKYGAGNAMTPHYSGTTLDAQTRYAEGTKNILESFFTGKFDYRPQDIILLNGEYVTKAYGKHDKK
For B4, in data set [1], the “activity with NADP^+” value is recorded as 0.083 U/mg and the “activity with NAD^+” value is recorded as 1.5 U/mg.

B5: PseFDH: FDH from Pseudomonas sp. 101, Seq ID No: 3 (protein, listed as Pseudomonas sp.)
chain: MAKVLCVLYDDPVDGYPKTYARDDLPKIDHYPGGQTLPTPKAIDFTPGQLLGSVSGELGLRKYLESNGHTLVVTSDKDGPDSVFERELVDADVVISQPFWPAYLTPERIAKAKNLKLALTAGIGSDHVDLQSAIDRNVTVAEVTYCNSISVAEHVVMMILSLVRNYLPSHEWARKGGWNIADCVSHAYDLEAMHVGTVAAGRIGLAVLRRLAPFDVHLHYTDRHRLPESVEKELNLTWHATREDMYPVCDVVTLNCPLHPETEHMINDETLKLFKRGAYIVNTARGKLCDRDAVARALESGRLAGYAGDVWFPQPAPKDHPWRTMPYNGMTPHISGTTLTAQARYAAGTR
One may read the Km as the concentration of substrate that gives half-maximal velocity. With B5, in data set [2], the “kcat NAD^+” value was 10.0 ± 0.6 s⁻¹ and the Km is 60 ± 5 µM. For the same molecule, the “formate oxidation, times more effectively with NAD^+ than with NADP^+” value in data set [1] (Tishkov et al. (1991)) is listed as 2400 times. The “activity with NAD^+” value in data set [1] is recorded as 6-8 U/mg.

B6: A176R PstPTDH: A176R mutant of phosphate dehydrogenase from Pseudomonas stutzeri (protein, UniProt O69054 1-336, looked up, variant A176R)
Phosphonate dehydrogenase: MLPKLVITHRVHDEILQLLAPHCELMTNQTDSTLTREEILRRCRDAQAMMAFMPDRVDADFLQACPELRVVGCALKGFDNFDVDACTARGVWLTFVPDLLTVPTAELAIGLAVGLGRHLRAADAFVRSGEFQGWQPQFYGTGLDNATVGILGMGAIGLAMADRLQGWGATLQYHERKALDTQTEQRLGLRQVACSELFASSDFILLALPLNADTQHLVNAELLALVRPGALLVNPCRGSVVDEAAVLAALERGQLGGYAADVFEMEDWARADRPRLIDPALLAHPNTLFTPHIGSAVRAVRLEIERCAAQNIIQVLAGARPINAANRLPKAEPAAC
Regarding B6, in data set [3], the “kcat NAD^+” value was 4.28 ± 0.0083 s⁻¹ and the Km was 60 ± 7 µM. Moreover, in data set [4], the “kcat NADP^+” value is 2.18 ± 0.0067 s⁻¹ and the Km was 77 ± 8.4 µM.

B7: E175A/A176R PstPTDH: E175A/A176R mutant of phosphate dehydrogenase from Pseudomonas stutzeri (protein, UniProt O69054 1-336, looked up, variant E175A A176R)
Phosphonate dehydrogenase: MLPKLVITHRVHDEILQLLAPHCELMTNQTDSTLTREEILRRCRDAQAMMAFMPDRVDADFLQACPELRVVGCALKGFDNFDVDACTARGVWLTFVPDLLTVPTAELAIGLAVGLGRHLRAADAFVRSGEFQGWQPQFYGTGLDNATVGILGMGAIGLAMADRLQGWGATLQYHARKALDTQTEQRLGLRQVACSELFASSDFILLALPLNADTQHLVNAELLALVRPGALLVNPCRGSVVDEAAVLAALERGQLGGYAADVFEMEDWARADRPRLIDPALLAHPNTLFTPHIGSAVRAVRLEIERCAAQNIIQVLAGARPINAANRLPKAEPAAC
Turning to B7, in data set [3], the “kcat NAD^+” value was 3.94 ± 0.0083 s⁻¹ and the Km is 20 ± 1.3 µM. Also, in data set [4], the “kcat NADP^+” value is 1.9 ± 0.0083 s⁻¹ and the Km was 3.5 ± 0.5 µM.

B8: SceFDH: FDH from S. cerevisiae, Seq ID No: 4 (protein, listed as Saccharomyces cerevisiae)
chain: MSKGKVLLVLYEGGKHAEEQEKLLGCIENELGIRNFIEEQGYELVTTIDKDPEPTSTVDRELKDAEIVITTPFFPAYISRNRIAEAPNLKLCVTAGVGSDHVDLEAANERKITVTEVTGSNVVSVAEHVMATILVLIRNYNGGHQQAINGEWDIAGVAKNEYDLEDKIISTVGAGRIGYRVLERLVAFNPKKLLYYDYQELPAEAINRLNEASKLFNGRGDIVQRVEKLEDMVAQSDVVTINCPLHKDSRGLFNKKLISHMKDGAYLVNTARGAICVAEDVAEAVKSGKLAGYGGDVWDKQPAPKDHPWRTMDNKDHVGNAMTVHISGTSLDAQKRYAQGVKNILNSYFSKKFDYRPQDIIVQN
As to B8, in data set [2], the “kcat NAD^+” value is 6.5 ± 0.4 s⁻¹ and the Km was 36 ± 5 µM.
